Experimental data from patent publication US20140193915, “COMPOSITIONS AND METHODS FOR CUSTOM SITE-SPECIFIC DNA RECOMBINASES” (Monsanto Technology, LLC, published 2014).

Legend:
Assay in all cases: cell_activity; E. coli
Conditions in all cases: tags: 6-His
sN-TALER IIa-1 = target: T1, sN-TALER IIa-1 (synthetic)
T1 chain: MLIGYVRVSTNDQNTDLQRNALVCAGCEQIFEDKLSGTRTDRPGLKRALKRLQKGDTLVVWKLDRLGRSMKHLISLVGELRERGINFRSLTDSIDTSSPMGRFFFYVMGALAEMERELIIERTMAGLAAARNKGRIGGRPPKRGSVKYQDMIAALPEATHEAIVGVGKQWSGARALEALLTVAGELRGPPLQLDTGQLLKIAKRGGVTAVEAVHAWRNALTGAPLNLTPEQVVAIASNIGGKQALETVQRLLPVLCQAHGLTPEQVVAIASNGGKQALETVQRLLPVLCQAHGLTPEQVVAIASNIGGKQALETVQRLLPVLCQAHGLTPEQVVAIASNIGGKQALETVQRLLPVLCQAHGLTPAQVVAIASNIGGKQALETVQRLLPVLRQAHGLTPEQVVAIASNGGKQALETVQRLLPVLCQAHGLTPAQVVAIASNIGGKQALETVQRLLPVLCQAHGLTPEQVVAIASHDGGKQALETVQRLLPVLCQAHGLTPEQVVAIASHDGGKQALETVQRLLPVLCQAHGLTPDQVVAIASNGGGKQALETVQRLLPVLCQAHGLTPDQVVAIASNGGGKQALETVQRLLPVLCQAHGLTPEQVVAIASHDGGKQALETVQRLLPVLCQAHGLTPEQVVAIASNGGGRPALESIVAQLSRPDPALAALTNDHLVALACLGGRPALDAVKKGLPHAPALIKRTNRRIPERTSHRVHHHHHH
Procedure, shortened: (§1)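 DH5alpha cells co-transformed (heat shock or electroporation) with N-TALER expression and reporter plasmids at ~1:1 mass ratio; reporter alone as control. Plated on chloramphenicol/kanamycin/X-gal, grown 37° C. for 18 to 36 hours; recombination scored by colony colour.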

sN-TALER III-1 = target: T2, sN-TALER III-1 (synthetic)
T2 chain: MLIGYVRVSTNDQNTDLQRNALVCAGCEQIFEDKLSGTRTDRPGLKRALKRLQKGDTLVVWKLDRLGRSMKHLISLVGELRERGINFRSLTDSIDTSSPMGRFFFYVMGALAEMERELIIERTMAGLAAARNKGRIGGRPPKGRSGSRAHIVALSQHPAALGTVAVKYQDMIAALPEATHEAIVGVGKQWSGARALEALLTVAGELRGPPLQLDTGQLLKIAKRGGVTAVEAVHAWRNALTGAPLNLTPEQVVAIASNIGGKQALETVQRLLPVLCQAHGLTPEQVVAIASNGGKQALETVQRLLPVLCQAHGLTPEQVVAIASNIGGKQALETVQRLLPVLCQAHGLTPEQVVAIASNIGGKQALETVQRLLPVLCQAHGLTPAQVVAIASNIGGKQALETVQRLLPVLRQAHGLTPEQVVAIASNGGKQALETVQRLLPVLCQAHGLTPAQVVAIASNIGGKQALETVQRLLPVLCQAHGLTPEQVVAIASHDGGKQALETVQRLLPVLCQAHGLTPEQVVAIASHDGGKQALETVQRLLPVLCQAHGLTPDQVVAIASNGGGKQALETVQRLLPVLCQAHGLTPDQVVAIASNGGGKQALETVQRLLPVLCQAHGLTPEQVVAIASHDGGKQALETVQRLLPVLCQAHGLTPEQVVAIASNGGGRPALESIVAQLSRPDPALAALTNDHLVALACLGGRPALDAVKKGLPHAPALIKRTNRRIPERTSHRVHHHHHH
Procedure, shortened: as §1

pN-TALER IV-1-EE3 = target: T3, pN-TALER IV-1-EE3 (synthetic)
T3 chain: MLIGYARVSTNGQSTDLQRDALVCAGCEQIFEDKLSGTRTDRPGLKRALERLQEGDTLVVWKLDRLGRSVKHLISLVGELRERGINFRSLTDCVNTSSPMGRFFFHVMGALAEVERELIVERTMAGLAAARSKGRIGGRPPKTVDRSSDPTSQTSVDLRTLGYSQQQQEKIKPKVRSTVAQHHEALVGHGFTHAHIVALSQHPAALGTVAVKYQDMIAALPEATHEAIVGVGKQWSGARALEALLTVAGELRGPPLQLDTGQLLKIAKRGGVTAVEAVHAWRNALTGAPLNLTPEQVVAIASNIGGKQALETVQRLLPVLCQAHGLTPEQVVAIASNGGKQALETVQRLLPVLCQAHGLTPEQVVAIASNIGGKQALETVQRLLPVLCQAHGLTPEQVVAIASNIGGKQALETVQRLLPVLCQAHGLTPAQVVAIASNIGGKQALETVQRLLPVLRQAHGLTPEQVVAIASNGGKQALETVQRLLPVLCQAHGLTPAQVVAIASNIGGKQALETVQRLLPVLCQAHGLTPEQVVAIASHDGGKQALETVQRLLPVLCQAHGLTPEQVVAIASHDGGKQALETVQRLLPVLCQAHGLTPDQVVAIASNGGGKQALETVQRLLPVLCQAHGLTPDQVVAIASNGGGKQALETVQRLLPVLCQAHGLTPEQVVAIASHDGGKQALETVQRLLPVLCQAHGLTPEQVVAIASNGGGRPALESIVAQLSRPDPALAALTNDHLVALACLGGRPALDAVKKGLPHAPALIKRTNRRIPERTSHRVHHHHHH

B1: Gin18TALE+0 (dsDNA)
DNA 1: AGAAGGTATTTATACCAAAACCATGGTTTACATATAAATACCTTCT
DNA 2: AGAAGGTATTTATATGTAAACCATGGTTTTGGTATAAATACCTTCT
Q: For B1, which activity (sN-TALER IIa-1) is on record?
A: 4 score

Q: What about the activity (sN-TALER III-1) of the same binder?
A: 4.5 score

Q: What about the activity (pN-TALER IV-1-EE3) of the same binder?
A: 3 score
